Common to all, as to assay type: in vivo, C57BL/6 mice
The test system of series [1] is S. aureus RN6390 endophthalmitis. Put plainly: Mouse S. aureus endophthalmitis: clinical score and slit lamp microscopy. The following applies: for mean clinical score: scored after 24 h, scale 0 to 4. The procedure:
FIGS. 3A-3E show the effects of intravitreal injection of chimeric Ply187AN-KSH3b on the severity of S. aureus endophthalmitis. The eyes (n=10) of C57BL/6 mice were infected with S. aureus strain RN6390 and following either 6 h or 12 h post-infection, Ply187AN-KSH3b or EB (EB C) was administered by intravitreal injection. FIG. 3A depicts individual eyes assigned clinical scores (range 0 to 4; black dots represent an eye) and presented as mean clinical scores (bar with SEM). […] FIG. 3E depicts the total number of dead cells in the retinal sections that were counted and are presented as mean±SD of the TUNEL positive cells. A student's t test (**, p<0.005) was used for the statistical analysis and comparisons were made between the S. aureus (SA) control, SA+EBC, and SA+Ply187AN-KSH3b-treated group.
The eyes of C57BL/6 mice (female, 8 week old) were intravitreally injected with 1 μl of PBS containing 5000 colony forming units (CFU) of S. aureus RN6390 to induce endophthalmitis as described previously (Kumar et al., supra). The chimeric Ply187AN-KSH3b (1 μg/μl) treatment in EB was given after 6 h (group I) or 12 h (group II) post infection. In the control group, the eyes were treated with EB (EB C). The eye infected with S. aureus without any treatment was used as a disease control. Clinical examinations were performed using slit lamp microscopy. The ocular disease was graded, and clinical scores from 0 to 4.0 were assigned using the previously described scale (Whiston et al., supra; Ramadan et al. 2006. Curr. Eye Res. 31:955-965). The clinical score of 4 is considered as 100 percent damage. Based on this, the percent damage and percent retention of eyes were calculated in both Ply187AN-KSH3b-treated vs untreated S. aureus infected eyes. Mice were treated in compliance with the ARVO Statement for the Use of Animals in Ophthalmic and Vision Research and all procedures were approved by the Institutional Animal Care and Use Committee (IACUC) of Wayne State University.
We hypothesized that similar to antibiotics, chimeric Ply187AN-KSH3b would have beneficial effects in protecting the eyes from endophthalmitis. To test this hypothesis, we used a C57BL/6 mouse model of S. aureus endophthalmitis. Chimeric Ply187AN-KSH3b was administrated intravitreally (1 μg/eye in 1 μl volume of EB) 6 h and 12 h after bacterial infection. Eyes without any treatment or eyes injected with EB served as controls. After 24 h, each infected eye was assigned a clinical score.

A further series relates to S. aureus RN6390. The experiment in a line: Mouse S. aureus endophthalmitis: bacterial burden in eyes (plate count). The following applies: 24 h after treatment. The text has this: FIGS. 4 A, B and C depict the effect of chimeric Ply187AN-KSH3b on bacterial growth in vivo and in the vitreous humor (VH) in vitro and with increasing inoculums in vitro respectively. […] Twenty-four hours after the treatment, the eyes were enucleated, homogenized and the bacterial burden was estimated via serial dilution plating. FIG. 4B depicts a test showing the effect of the vitreous humor on Ply187AN-KSH3b antimicrobial activity where Ply187AN-KSH3b was mixed with calf vitreous humor and inoculated with 10^5 CFU of S. aureus. The survival of the bacteria was enumerated by CFU count at 2, 4 and 6 h of incubation. Statistical analysis was performed using unpaired student's t test (*, p<0.05; **, p<0.005; ***, p<0.0005). […] An increasing number of dilutions (1:10,000 to 1:10) of logarithmic phase of S. aureus (RN6390 strain) were treated with Ply187AN-KSH3b for 1 h followed by CFU enumeration on TSA plates. Statistical analysis was performed using unpaired student's t test (*, p<0.05; **, p<0.005; ***, p<0.0005).
The bacterial burden in both chimeric Ply187AN-KSH3b- and vehicle-treated eyes was estimated using a bacterial plate count method. At the desired time point, the eyes were enucleated and homogenized in sterile PBS by stainless steel beads using Tissue lyser (Qiagen, Valencia, Calif.). […] The results were expressed as the mean number of CFU/eye ±SEM.

In series [2] the test system is inflammatory cytokines/chemokines in S. aureus-infected eyes. The experiment in a line: Mouse S. aureus endophthalmitis: inflammatory cytokines/chemokines by ELISA. The protocol:
Following treatment with chimeric Ply187AN-KSH3b or EB (EB C), the eyes (n=4 per time point) were enucleated and 10 μg protein lysate was used for the detection of indicated inflammatory cytokines/chemokines by ELISA. *p<0.05, **p<0.005 (student t-test, SA or EB vs. Ply187AN-KSH3b-treated)
To measure the inflammatory cytokines, retinal extracts were processed by homogenization in 250 μl of PBS, followed by centrifugation at 12,000×g for 10 min. PBS-injected mice were used as normal controls (PBS C) and EB-treated mice were used as vehicle controls (EB C). The protein concentration of the retinal lysate was determined by the Micro BCA™ protein assay kit (Thermoscientific, Rockford, Ill.). Equal amounts of protein were used to perform the ELISA, per the manufacturer's instructions (BD biosciences, San Diego, Calif. (IL-6, IL1β & TNFα) and R & D systems, Minneapolis, Minn. (MIP2 & KC).

Setting [3] is: 6 h and 12 h treatment, vs vehicle-treated and S. aureus control eyes.

B1: Ply187AN-KSH3b: staphylococcal peptidoglycan hydrolase fusion protein: endopeptidase domain of prophage endolysin Ply187 plus SH3b cell wall-binding domain of phage K endolysin LysK (SEQ ID NO:1) (protein)
chain: MALPKTGKPTAKQVVDWAINLIGSGVDVDGYYGRQCWDLPNYIFNRYWNFKTPGNARDMAWYRYPEGFKVFRNTSDFVPKPGDIAVWTGGNYNWNTWGHTGIVVGPSTKSYFYSVDQNWNNSNSYVGSPAAKIKHSYFGVTHFVRPAYKAEPKPTPPLESTPATRPVTGSWKKNQYGTWYKPENATFVNGNQPIVTRIGSPFLNAPVGGNLPAGATIVYDEVCIQAGHIWIGYNAYNGNRVYCPVRTCQGVPPNQIPGVAWGVFKVEHHHHHH
modifications: Chemically Synthesized Fusion Protein
In the case of B1, the “slit lamp microscopy appearance of eyes” value in series [1] (1 μg/eye intravitreal) is reported as “clear/transparent corneas and/or anterior chambers”. Also, in series [1] (treatment 6 h post infection, 1 μg/eye intravitreal), the mean clinical score came to 0.2. Also, in series [1] (treatment 12 h post infection, 1 μg/eye intravitreal), the mean clinical score came out at 0.3. In series [1] (treatment group, clinical score 4 = 100 percent damage), the “retention of eyes (conversion of clinical scores)” value was 90-95%. In addition, the bacterial burden recovered in the series on S. aureus RN6390 (treatment 6 h post infection) is reported as 3.6×10^3 CFU/eye. The bacterial burden recovered in the series with S. aureus RN6390 (treatment 12 h post infection) is listed as 2.9×10^4 CFU/eye. In series [2] (setting [3]), the “level of IL-1β” value was “dramatically reduced levels”, the “level of IL-6” value was “dramatically reduced levels”, the “level of KC (CXCL1)” value is “dramatically reduced levels” and the “level of MIP2 (CXCL2)” value is reported as “dramatically reduced levels”. Besides, the “level of TNFα” value in series [2] (setting [3]) is on record as “dramatically reduced levels”. In series [2] (6 h vs. 12 h treatment), the “MIP-2 reduction, 6 h compared with 12 h treatment” value is on record as “greater reduction after 6 h vs. 12 h treatment”.

The values are drawn from patent US20150335719A1, “Intravitreal Injection of a Chimeric Phage Endolysin Ply187; Protection from Staphylococcus aureus Endophthalmitis” (priority 2014, published 2015).
